Assay results as given in patent US6682736.

What was measured:
CTLA-4-Ig(G4) [1] = target: T1, CTLA-4-Ig(G4) (UniProt P16410 37-161, limits assumed); experiment: competition ELISA: CTLA-4-Ig(G4) to coated B7.2-Ig(G1); n = 3
T1 construct: Bought (Repligen, Inc.); not shown: IgG4 portion of the bought fusion protein

[2] = target: T2, CTLA-4-IgG1 fusion protein (human); experiment: BIAcore; CTLA-4-Ig on chip, 878.7 RU
T2 construct: Mature extracellular domain of human CTLA-4 fused to human IgG1 constant domains, no hinge, covalent dimer through cysteine 120; The oncostatin M signal peptide is cleaved; also called OM-CTLA4-IgG1 Fusion Protein; CTLA-4-Ig fusion protein

[3] = target: T2, CTLA-4-IgG1 fusion protein; experiment: BIAcore; CTLA-4-Ig on chip, 457.2 RU
[4] = target: T2, CTLA-4-IgG1 fusion protein; experiment: BIAcore; CTLA-4-Ig on chip, 504.5 RU
CTLA-4-Ig(G4) [5] = target: T1, CTLA-4-Ig(G4); experiment: competition ELISA: CTLA-4-Ig(G4) to coated B7.1-Ig(G1); n = 2
[6] = target: T2, CTLA-4-IgG1 fusion protein; experiment: BIAcore; CTLA-4-Ig on chip, 397.8 RU
CTLA-4-Ig(G1) = target: T3, CTLA-4-Ig(G1) (UniProt P16410 37-161, limits assumed); experiment: IGEN ECL bead assay, antibody 1 µg/ml; CTLA-4-Ig(G1) over CD28-Ig(G1); n = 2
T3 construct: also called CTLA4 (IGEN assay); not shown: IgG1 portion

[7] = target: T2, CTLA-4-IgG1 fusion protein; experiment: selectivity ELISA, antibody 1 µg/ml; CTLA-4/Ig over CD28/Ig; n = 3
[8] = target: T2, CTLA-4-IgG1 fusion protein; experiment: selectivity ELISA, antibody 1 µg/ml; CTLA-4/Ig over B7.2/Ig; n = 3
[9] = target: T2, CTLA-4-IgG1 fusion protein; experiment: selectivity ELISA, antibody 1 µg/ml; CTLA-4/Ig over CD44/Ig; n = 3

T2 sequence (chain, as listed by the source): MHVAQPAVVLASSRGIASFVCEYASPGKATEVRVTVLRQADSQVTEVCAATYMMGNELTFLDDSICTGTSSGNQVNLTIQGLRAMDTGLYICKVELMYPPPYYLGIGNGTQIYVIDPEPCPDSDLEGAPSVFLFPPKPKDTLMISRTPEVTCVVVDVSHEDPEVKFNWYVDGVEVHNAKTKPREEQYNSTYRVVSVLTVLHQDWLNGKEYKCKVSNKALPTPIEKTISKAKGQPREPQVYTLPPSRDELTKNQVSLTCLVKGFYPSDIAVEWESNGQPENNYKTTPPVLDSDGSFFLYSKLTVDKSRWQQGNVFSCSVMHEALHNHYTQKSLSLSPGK
T1 sequence (P16410 37-161 limits assumed): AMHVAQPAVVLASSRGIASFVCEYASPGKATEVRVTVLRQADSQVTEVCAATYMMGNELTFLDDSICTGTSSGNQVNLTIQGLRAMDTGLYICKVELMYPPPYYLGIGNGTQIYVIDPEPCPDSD
T3 sequence (P16410 37-161 limits assumed): as above

B1: 4.10.2 (antibody, human IgG2, V domains shown)
VH: GVVQPGRSLRLSCVASGFIFSSHGIHWVRQAPGKGLEWVAVIWYDGRNKDYADSVKGRFTISRDNSKNTLYLQMNSLRAEDTAVYYCARVAPLGPLDYWGQGTLVTVSS
VL: SPGTLSLSPGERATLSCRASQSISSNFLAWYQQKPGQAPRLLIYRPSSRATGIPDSFSGSGSGTDFTLTISRLEPEDFALYYCQQYGTSPFTFGPGTKVDIKR
notes: Fully human IgG2 kappa (hybridoma); also called CT-4.10.2
CTLA-4-Ig(G4) [1]
  IC50: 1.5 nM
[2]
  Ka: 3.9e+09 M⁻¹
  Kd: 0.254 nM
  koff: 0.000253 s⁻¹
  kon: 1e+06 M⁻¹ s⁻¹
[3]
  Ka: 1.4e+09 M⁻¹
  Kd: 0.721 nM
  koff: 0.000505 s⁻¹
  kon: 700000 M⁻¹ s⁻¹
[4]
  Ka: 2.2e+09 M⁻¹
  Kd: 0.455 nM
  koff: 0.00043 s⁻¹
  kon: 940000 M⁻¹ s⁻¹
CTLA-4-Ig(G4) [5]
  IC50: 3.39 nM

B2: 3.1.1 (antibody, V domains shown)
VH: GVVQPGRSLRLSCAASGFTFSSYGMHWVRQAPGKGLEWVAVIWYDGSNKYYADSVKGRFTISRDNSKNTLYLQMNSLRAEDTAVYYCARGARIITPCMDVWGQGTTVTVSS
VL: QSPSSLSASVGDRVTITCRASQSINTYLIWYQQKPGKAPNFLISATSILQSGVPSRFRGSGSGTNFTLTINSLHPEDFATYYCQQSYSTPFTFGPGTKVDIKR
notes: also called CT-3.1.1
CTLA-4-Ig(G4) [1]
  IC50: 0.45 nM
[6]
  Ka: 4.4e+09 M⁻¹
  Kd: 0.228 nM
  koff: 0.000207 s⁻¹
  kon: 910000 M⁻¹ s⁻¹
[2]
  Ka: 1.07e+10 M⁻¹
  Kd: 0.093 nM
  koff: 9.6e-05 s⁻¹
  kon: 1.04e+06 M⁻¹ s⁻¹
CTLA-4-Ig(G1)
  selectivity ratio CTLA4/CD28: > 500 :1
[7]
  selectivity ratio CTLA4/CD28: > 500 :1
[8]
  selectivity ratio CTLA4/B7.2: > 500 :1
[3]
  Ka: 4.4e+09 M⁻¹
  Kd: 0.227 nM
  koff: 0.000165 s⁻¹
  kon: 730000 M⁻¹ s⁻¹
[4]
  Ka: 5.5e+09 M⁻¹
  Kd: 0.182 nM
  koff: 0.000172 s⁻¹
  kon: 950000 M⁻¹ s⁻¹
CTLA-4-Ig(G4) [5]
  IC50: 0.63 nM
[9]
  selectivity ratio CTLA4/CD44: > 500 :1

B3: 2.1.3 (antibody, human IgG4, V domains shown)
VH: SGPGLVKPSQILSLTCTVSGGSISSGGHYWSWIRQHPGKGLEWIGYIYYIGNTYYNPSLKSRVTISVDTSKNQFSLKLSSVTAADTAVYYCARDSGDYYGIDVWGQGTTVTVSS
VL: SPDFQSVTPKEKVTITCRASQSIGSSLHWYQQKPDQSPKLLIKYASQSFSGVPSRFSGSGSGTDFTLTINSLEAEDAATYYCHQSSSLPLTFGGGTKVEIKR
[6]
  Ka: 9e+08 M⁻¹
  Kd: 1.17 nM
  koff: 0.0013 s⁻¹
  kon: 1.11e+06 M⁻¹ s⁻¹
[2]
  Ka: 1.3e+09 M⁻¹
  Kd: 0.772 nM
  koff: 0.000959 s⁻¹
  kon: 1.24e+06 M⁻¹ s⁻¹
[4]
  Ka: 9e+08 M⁻¹
  Kd: 1.12 nM
  koff: 0.00131 s⁻¹
  kon: 1.17e+06 M⁻¹ s⁻¹
